Test: soluble on expression in E. coli; label from the status in PepcDB or PDB records

| Sequence | soluble on expression in E. coli |
| --- | --- |
| SLSIDEIKQLIELIDESTLDEFELETKDSKILLKKHKTVVATAVQEAPIAVTPAQTAPVTPAAAPQVEASTAEDVNLEVITSPMVGTFYASASPEDANFVSVGSKVSAQSVVCIVEAMKLFNEITADIDGEIAEILVSSGELVEFGQPLFKVRKK | soluble |
| SLSSKDKDTVKALWGKIADKAEEIGSDALSRMLAVYPQTKTYFSHWKDLSPGSAPVNKHGKTIMGGIVDAVASIDDLNAGLLALSELHAFTLRVDPANFKILSHCILVLLAVKFPKDFTPEVHISYDKFFSALARALAEKYR | soluble |
| SLSSTQSVNSVLAPGNLRKVHHIALNVQDMQASRYFYGTILGLHELTDDEVPATLTELVASGKVANFITPDGTILDLFGEPELSPPDPNPEKTFTRAYHLAFDIDPQLFDRAVTVIGENKIAIAHGPVTRPTGRGVYFYDPDGFMIEIRCDPEAEG | soluble |
| SLTRPNTDYSCGGFLSQPSGDFSSPFYPGNYPNNAKCVWDIEVQNNYRVTVIFRDVQMEGGCNYDYIEVFDGPYRSSPLIARVCDGARGSFTSSSNFMSIRFISDHSITRRGFRAEYYSSPSN | soluble |
| SLTRRADDGPLVLTGANAPMSATTASGQADASFFDPGLLRRFGITRVGDVTGLDIIGIPVWFAARPNSRGLSVSQGKGLFADQARLSAIMEAIEGAVAEETRRHVTAFGSIEEMRNKGVPLIPFETVGRIDPDALDLRKERAWVKGTSIRQQQEVFAPYELIGMDFRAEFPWDRQAFRMSSQGLAAGFEQDHAVLHALLELIENDASFLVDTFETRAITPQPFLLSAGMDSLLDDLIQHLSNIGLPPSFFDLTNALGVPVVMASLPRSLQAEDGPATRSAAGAACRPNTHAAAMAALLEAIQSRLTDISGARDDLSPLRYQRDLSTSGPTASRAQPLRQMPADLNFPESDLSLPPWRQLAEHLFARGIEDIHVFPLETEVSGLHVVRILASGLAPAGGGLQHISPRTLDHLLNLGGT | soluble |
| SLVELQEIFDVSYGSKLDLNKMSSFNPTINFVGRSGKNNGVTASVDLLKNTKPYPAGLLTVALGGSVLSTFLQNKPFYTAQNVAVLNPKTEMTEQQKLFYCAAIFANAYRFSACGREANRTLRQLFVPSLDEIPSWVESVNLNPSAGVTEPKLKESLDLPVVRQSKRLDEIFTIQNGIAATKLKEFEQRQKDTVVYIRPASTQARTLRSYIARDSVDEKHIFPCHTLFTSTNGEGSHTYSYVSTCEFVANSDVAVLTPIQSDMPIEVKLYYAKCITANRYLFSYGRKPKGEKLKSIMLPYFDQQEDFDYICRFIHTLLFSNNL | not soluble |
| SLYENDYVKKTQVWPSGGQMTVKNLSANYIDGGNTVLENISFSLSPGQRVGLLGRTGSGKSTLLSAFLRLLSTQGDIQIDGVSWQTIPLEKWRKAFGVIPQKVFIFSGSIRKNLDPYGKWSDEELLKVTEEVGLKLIIDQFPGQLDFVLLDGGCVLSHGHKQLVCLARSVLSKAKILLLDEPSAHLDPITFQIIRKTLKHAFADCTVILSEARLEAMLECDRFLVIEDNTVRQYDSIQKLVNEKSDFKQAISHSD | soluble |
| SLYQVVLGKVSTLSAGQLPDALIAQAPQGVRRASWLAGRVLLSRALSPLPEMVYGEQGKPAFSAGAPLWFNLSHSGDTIALLLSDEGEVGCDIEVIRPRDNWRSLANAVFSLGEHAEMEAERPEQQLAAFWRIWTRKEAIVKQRGGSAWQIVSVDSTLPSALSVSQCQLDTLSLAVCTPTPFTLTPQTITKAL | not soluble |
| SMAPWGKRLAGVRGVLLDISGVLYDSGAGGGTAIAGSVEAVARLKRSRLKVRFCTNESAASRAELVGQLQRLGFDISEQEVTAPAPAACQILKERGLRPYLLIHDGVRSEFDQIDTSNPNCVVIADAGESFSYQNMNNAFQVLMELEKPVLISLGKGRYYAATSGLMLDVGPYMKALEYACGIKAEVVGKPSPEFFKSALQAIGVEAHQAVMIGDDIVGDVGGAQRCGMRALQVRTGKFRPSDEHHPEVKADGYVDNLAEAVDLLLQHADK | soluble |
| SMKINFLRNKHKIHVQGTDLPDPIATFQQLDQEYKINSRLLQNILDAGFQMPTPIQMQAIPVMLHGRELLASAPTGSGKTLAFSIPILMQLKQPANKGFRALIISPTRELASQIHRELIKISEGTGFRIHMIHKAAVAAKKFGPKSSKKFDILVTTPNRLIYLLKQDPPGIDLASVEWLVVDESDKLFEDGKTGFRDQLASIFLACTSHKVRRAMFSATFAYDVEQWCKLNLDNVISVSIGARNS | soluble |
| SMLSTEGREGFVVKVRGLPWSCSAEEVMRFFSDCKIQNGTSGVRFIYTREGRPSGEAFVELESEDEVKLALKKDRETMGHRYVEVFKSNSVEMDWVLKHTGPNSPDTANDGFVRLRGLPFGCSKEEIVQFFSGLEIVPNGMTLPVDFQGRSTGEAFVQFASQEIAEKALKKHKERIGHRYIEIFKSSRAEVRTHYDPPRKLMTMQRPGPYDRPGAGRGYNSIGRGAGFERMRRGAYGGGYGGYDDYGGYNDGYGFGSDRFGRDLNYCFSGMSDHRYGDGGSSFQSTTGHCVHMRGLPYRATENDIYNFFSPLNPMRVHIEIGPDGRVTGEADVEFATHEDAVAAMAKDKANMQHRYVELFLNSTAGTSGGAYDHSYVELFLNSTAGASGGAYGSQMMGGMGLSNQSSYGGPASQQLSGGYGGGYGGQSSMSGYDQVLQENSSDYQSNLA | not soluble |
| SMQQLVLDPGFLGLEPLLDLLLGVHQELGASELAQDKYVADFLQWAEPIVVRLKEVRLQRDDFEILKVIGRGAFSEVAVVKMKQTGQVYAMKIMNKWDMLKRGEVSCFREERDVLVNGDRRWITQLHFAFQDENYLYLVMEYYVGGDLLTLLSKFGERIPAEMARFYLAEIVMAIDSVHRLGYVHRDIKPDNILLDRCGHIRLADFGSCLKLRADGTVRSLVAVGTPDYLSPEILQAVGGGPGTGSYGPECDWWALGVFAYEMFYGQTPFYADSTAETYGKIVHYKEHLSLPLVDEGVPEEARDFIQRLLCPPETRLGRGGAGDFRTHPFFFGLDWDGLRDSVPPFTPDFEGATDTCNFDLVEDGLTAMVSGGGETLSDIREGAPLGVHLPFVGYSYSCMALRDSEVPGPTP | soluble |
| SMYKVRDISLAEWGRRELELAENEMPGLMELRREYGPSKPLKGAKIAGCLHMTMQTAVLIETLVELGAEVRWASCNIFSTQDHAAAAIAKRGIPVFAWKGETEEEYMWCMKQTLKGFSGDGYPNMLLDDGGDLTNYVLDECKELDGKIYGVSEETTTGVKNLYKRLQRGKLTIPAMNVNDSVTKSKFDNLYGCRESLVDGIKRATDVMIAGKTACVCGYGDVGKGCAAALRGFGARVVVTEVDPINALQAAMEGYQVLLVEDVVEEAHIFVTTTGNDDIITSEHFPRMRDDAIVCNIGHFDTEIQVAWLKANAKERVEVKPQVDRYTMANGRHIILLAEGRLVNLGCASGHPSFVMSNSFCNQVLAQIELWTNRDTGKYPRGAKAQVYFLPKKLDEKVAALHLGKLGAKLTKLTPKQAEYINCPVDGPFKPDHYRY | soluble |
| SNAKSAVTAQSILEKADEIRFPQDSFQVNVAIRTAAPDHAEDLYRYQVLSKGNENSIVMITEPASERGQAILMKGRDLWVFMPSVSQPIRLSLSQRLTGQVANGDIARANFTGDYHPQLLRNESIDDEDYYVLELTGIDRSVTYQKVLLWVNQSNFRPYKAEFYSVSGRLLKTSRYENFDNILGEMRPTRIIMEDALKSGEVSVLDYSDMKLRDLPDKIFTKDYLKRLE | soluble |
| SNAKVILYARVSSNTQKDDLANQVKYLEEQVKEYDLVITDIGSGLNMKRKGFLKLLRMILNNEVSRVITAYPDRLVRFGFEILEEVCKAHNCEIVVLNQEDKTPEEELVEDLATILVSFSGKLHGMRSQKYEKVKKCAEELKN | soluble |
| SNAMKFELPKLPYAVDALESTISKETIEYHYGKHHQTYVTNLNNLVEGTEHDGRNLEEIVKTSNGGIFNNAAQVFNHTFYWNCLTPNKTEASSQLKAALIETFGSVENFKEQFSKAAIATFGSGWAWLVKNTEGKLEIVTTSNAGCPLTENKKPLLTFDVWEHAYYIDYRNARPKYVEALWDIVNWQFVSEQFAD | soluble |
| SNAMNQTLLSDFGTPVERVERAIDALRNGRGVMVLDDESRENEGDMVFAAEAMTLEQMALTIRHGSGIVCLCITDERRQQLDLPMMVTHNSSQFQTAFTVTIEAAEGVTTGVSAADRLTTIRKAIADNAKPADLNRPGHVFPLRGQPGGVLSRRGHTEASIDLATLAGYKPAGVLCELTNDDGSMAHAPEVIAFAKLHDMPVVTIDDLAAYLQSRAKKAS | soluble |
| SNAMQNRWAETKFDSDIDEVVYGSRLIGSDPDLVLHGGGNTSVKTTERDHAGRIISVLRVKNSGSNLGTIDSRGFTGIRMDDALAAAKIDKMTDEAMVDYLKKSMVNPSEPSPSVETFLHAFLPYKFVMHSHADAILSITNTDLPSDQIAKILGNVVVLPYIPPGFTLAKEVMNCFKKGIDGIVLRKHGLLTFGDTGKEAYDRHINIVSRAENFIREKTDGK | soluble |
| SNAMSRAKKWVQYFLSHRHVTMELIHKIDEAHYDYKPTPTSMTAKQLATHMLFSFYNFANTAKHGDPSLFRQKIEEPETNLAKLAETYTEKTRQLIESMSDDDFDRTLDLTAIFGTQMSTAQFLQLAMDHEIHHKGQLFVYVRGMGHTDLPLFVKRG | soluble |
| SNAMSVQTIERLQDYLLPEWVSIFDIADFSGRMLRIRGDIRPALLRLASRLAELLNESPGPRPWYPHVASHMRRRVNPPPETWLALGPEKRGYKSYAHSGVFIGGRGLSVRFILKDEAIEERKNLGRWMSRSGPAFEQWKKKVGDLRDFGPVHDDPMADPPKVEWDPRVFGERLGSLKSASLDIGFRVTFDTSLAGIVKTIRTFDLLYAEAEKGS | soluble |
| SNAMTMKVGFIGLGIMGKPMSKNLLKAGYSLVVSDRNPEAIADVIAAGAETASTAKAIAEQCDVIITMLPNSPHVKEVALGENGIIEGAKPGTVLIDMSSIAPLASREISDALKAKGVEMLDAPVSGGEPKAIDGTLSVMVGGDKAIFDKYYDLMKAMAGSVVHTGDIGAGNVTKLANQVIVALNIAAMSEALTLATKAGVNPDLVYQAIRGGLAGSTVLDAKAPMVMDRNFKPGFRIDLHIKDLANALDTSHGVGAQLPLTAAVMEMMQALRADGHGNDDHSALACYYEKLAKVEVTR | soluble |
| SNASYRSTQQITDFTKEILVNGEAVTAFDRQGDLPNVVVTPNFEAGVDQVVDQLAMNDSERDTTAIIGKSLAECEALTKALKARGEQVTLIQTENQRLAPGVIVVPSFLAKGLEFDAVIVWNANQENYQREDERQLLYTICSRAMHELTLVAVGSLSPLLARVNHALYTLNEAK | soluble |
| SNAYTDESGLSELVNAAGEKLQDLELMGQKNAVRDFFKELIADSGKVAYGESQVRANLEINSVDVLLLSEDLRAERVTTKCSVCGYENKWTRRWKPGEPAPAAGNCPKCGSSLEVTDVTDIVDEFSELADKSNAKVVFVSTDFDEGSQLMNAFGGIAAILRYNTGV | soluble |
| SNCRSEVLEVSVEGRQVEEAMLAVLHTVLLHRSTGKFHYKKEGTYSIGTVGIQDVDCDFIDFTYVRVSSEELDRALRKVVGEFKDALRNSGGDGLGQMSLEFYQKKKSRWPFSDECIPWEVWTVKVHVVALATEQERQICREKVGEKLCEKIINIVEVMSRHEYLPKMPTQSEVDNVFDTGLRDVQPYLYKISFQITEALGTSVTTTMRRLIKDTLAL | soluble |
| SNDYRVAVFGAGGVGKSSLVLRFVKGTFRESYIPTVEDTYRQVISCDKSICTLQITDTTGSHQFPAMQRLSISKGHAFILVYSITSRQSLEELKPIYEQICEIKGDVESIPIMLVGNKCDESPSREVQSSEAEALARTWKCAFMETSAKLNHNVKELFQELLNLEKRRTVSL | soluble |
